In this experiment the target is FcγRIIIa on NK cells of V/F donors (both aa158 allotypes, V and F) (human). Kind of experiment: cell-based or functional assay.

Drawing on US20090117111A1, this text covers ED50 for lysis of the Daudi cell line (ADCC, purified NK cells, V/F donors) for two substances.

As for monoclonal antibody CHIR-12.12, the ED50 for lysis of the Daudi cell line (ADCC, purified NK cells, V/F donors) was found to be 0.002 nM.
Regarding rituximab (Rituxan) (antibody), the ED50 for lysis of the Daudi cell line (ADCC, purified NK cells, V/F donors) is 0.021 nM.
